Common to all, as to test: FRET or BRET
The target of test [1] is E. coli ribosomal pre-translocation complex lacking an A-site tRNA (PRE^−A complex) (E. coli) (UniProt P0A7L0).
For test [2] the target is unchanged. The source holds these as a separate data set.
Test [3] shares this target. The source holds these as a separate data set.

Read-outs that look alike come from different tables or passages of the source.

Chain of UniProt P0A7L0 (P0A7L0 whole entry, looked up, one chain of several): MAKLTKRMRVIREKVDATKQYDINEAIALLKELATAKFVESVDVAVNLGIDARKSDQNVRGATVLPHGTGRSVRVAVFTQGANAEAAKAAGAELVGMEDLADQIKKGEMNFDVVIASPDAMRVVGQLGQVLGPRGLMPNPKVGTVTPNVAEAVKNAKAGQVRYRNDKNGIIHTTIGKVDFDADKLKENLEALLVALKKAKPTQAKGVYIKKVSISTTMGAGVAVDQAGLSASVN

Consider “EQ2-EttA (E. coli EttA with both catalytic glutamates changed to glutamine) (from UniProt P0A9W3 1-555) (enzyme)”, for which the dissociation constant (Kd) in test [1] is below 6 µM.

Consider “EQ2-YheS (E. coli YheS with both catalytic glutamates changed to glutamine) (from UniProt P63389 1-637) (enzyme)”, for which the Kd in test [1] was below 6 µM; in test [2] it was below 1 µM.

Consider “EQ2-Uup (E. coli Uup with both catalytic glutamates changed to glutamine) (from UniProt P43672 1-635) (enzyme)”, for which the Kd in test [1] was below 6 µM; in test [3] it was 1 µM.

Consider “EQ2-YbiT (E. coli YbiT with both catalytic glutamates changed to glutamine) (from UniProt P0A9U3 1-530) (enzyme)”, for which the Kd in test [1] was below 6 µM.

Source of the values: doi:10.1101/2023.06.11.543863.
